Source: patent US20160053025A1 (SAMSUNG ELECTRONICS, published 2016)

Experiments:
[1] = molecular target: T1, recombinant hAng-2 (C-His, R&D Systems) (human, UniProt O15123 19-496); test: SPR, Biacore T100; C-terminal His-tagged human Ang2 captured by anti-histidine antibody on CM5, MA01 as analyte
T1 construct: Bought protein; also called human Ang-2 protein; C-terminal histidine-tagged human Ang2 (R&D Systems); not shown: C-terminal His tag
T1 sequence: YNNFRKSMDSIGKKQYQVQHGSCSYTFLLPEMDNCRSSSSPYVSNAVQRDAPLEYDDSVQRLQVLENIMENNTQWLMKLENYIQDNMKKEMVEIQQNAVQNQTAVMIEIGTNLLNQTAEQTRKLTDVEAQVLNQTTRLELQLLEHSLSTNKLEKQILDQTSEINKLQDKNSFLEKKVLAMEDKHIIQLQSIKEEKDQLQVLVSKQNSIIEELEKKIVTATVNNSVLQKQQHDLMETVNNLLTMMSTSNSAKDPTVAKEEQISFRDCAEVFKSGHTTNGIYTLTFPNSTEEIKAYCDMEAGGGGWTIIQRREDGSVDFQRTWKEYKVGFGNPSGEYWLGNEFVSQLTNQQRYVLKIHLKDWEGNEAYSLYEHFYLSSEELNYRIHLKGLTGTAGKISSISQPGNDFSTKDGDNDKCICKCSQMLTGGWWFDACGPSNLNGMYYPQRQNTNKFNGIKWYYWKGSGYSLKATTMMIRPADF
Protocol: The binding affinity of the anti-c-Met/anti-Ang2 bispecific antibody prepared in Example 1 to Ang2 was measured using Biacore T100(GE). For this, an anti-histidine antibody (R&D Systems) was fixed on the surface of CM5 chip (#BR-1005-30, GE) according to manufacturer's manual. C-terminal histidine-tagged human Ang2 (R&D Systems) was captured and then, anti-c-Met/anti-Ang2 bispecific antibody MA01 was added to the captured antigen (Ang2) at various concentrations. Hereto, 10 mM Glycine-HCl (pH 1.5) solution was added, to regenerate the surface. To measure the affinity, the above obtained data were fitted using BIAevaluation software (GE Healthcare, Biacore T100 evaluation software).

[2] = molecular target: T2, c-Met-Fc (#358-MT/CF, R&D Systems) (human, UniProt P08581 25-932); test: SPR, Biacore T100; bispecific antibody captured by human Fab binder on CM5, c-Met-Fc as analyte
T2 construct: also called human c-Met/Fc fusion protein (R&D Systems); human c-Met/Fc protein; not shown: Fc part
T2 sequence (P08581 25-932 limits assumed): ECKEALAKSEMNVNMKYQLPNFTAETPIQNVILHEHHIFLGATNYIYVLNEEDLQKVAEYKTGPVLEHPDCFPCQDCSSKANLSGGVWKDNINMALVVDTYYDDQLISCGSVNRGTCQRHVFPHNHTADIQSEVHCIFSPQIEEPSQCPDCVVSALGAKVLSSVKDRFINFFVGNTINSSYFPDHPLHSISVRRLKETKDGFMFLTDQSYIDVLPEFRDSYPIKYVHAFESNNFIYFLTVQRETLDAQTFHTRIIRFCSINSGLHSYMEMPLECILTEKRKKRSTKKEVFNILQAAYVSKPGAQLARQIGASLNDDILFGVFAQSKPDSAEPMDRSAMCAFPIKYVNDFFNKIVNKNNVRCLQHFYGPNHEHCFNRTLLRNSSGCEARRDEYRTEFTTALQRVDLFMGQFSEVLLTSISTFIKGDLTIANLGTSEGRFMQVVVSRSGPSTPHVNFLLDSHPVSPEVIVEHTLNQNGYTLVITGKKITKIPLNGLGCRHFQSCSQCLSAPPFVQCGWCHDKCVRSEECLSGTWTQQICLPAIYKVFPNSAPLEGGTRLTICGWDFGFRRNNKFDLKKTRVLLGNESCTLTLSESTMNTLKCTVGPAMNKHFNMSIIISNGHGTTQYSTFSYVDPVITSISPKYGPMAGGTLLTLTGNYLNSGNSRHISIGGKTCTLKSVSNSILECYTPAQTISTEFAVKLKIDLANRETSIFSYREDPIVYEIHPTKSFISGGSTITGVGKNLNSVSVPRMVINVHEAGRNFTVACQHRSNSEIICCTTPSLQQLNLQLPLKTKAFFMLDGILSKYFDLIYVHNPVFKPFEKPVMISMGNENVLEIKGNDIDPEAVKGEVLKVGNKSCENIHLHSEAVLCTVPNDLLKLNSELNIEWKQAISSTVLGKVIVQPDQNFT
Protocol: The binding affinity of the anti-c-Met/anti-Ang2 bispecific antibody prepared in Example 1 to c-Met was measured using Biacore T100(GE). For this, a human Fab binder (#28-9583-25, GE Healthcare) was fixed on the surface of CM5 chip (#BR-1005-30, GE) according to manufacturer's manual. About 90˜120 RU of the anti-c-Met/anti-Ang2 bispecific antibody was captured and then, c-Met-Fc (#358-MT/CF, R&D Systems) was added to the captured antibody at various concentrations. Hereto, 10 mM Glycine-HCl (pH 1.5) solution was added, to regenerate the surface. To measure the affinity, the above obtained data were fitted using BIAevaluation software (GE Healthcare, Biacore T100 evaluation software).

B1: anti-c-Met/anti-Ang2 bispecific antibody MA01 (bispecific antibody, human IgG2, kappa)
heavy: EVQLVESGGGLVQPGGSLRLSCAASGFTFTDYYMSWVRQAPGKGLEWLGFIRNKANGYTTEYSASVKGRFTISRDNSKNTLYLQMNSLRAEDTAVYYCARDNWFAYWGQGTLVTVSSASTKGPSVFPLAPCSRSTSESTAALGCLVKDYFPEPVTVSWNSGALTSGVHTFPAVLQSSGLYSLSSVVTVPSSNFGTQTYTCNVDHKPSNTKVDKTVERKCCVECPPCPAPPVAGPSVFLFPPKPKDTLMISRTPEVTCVVVDVSHEDPEVQFNWYVDGVEVHNAKTKPREEQFNSTFRVVSVLTVVHQDWLNGKEYKCKVSNKGLPAPIEKTISKTKGQPREPQVYTLPPSREEMTKNQVSLTCLVKGFYPSDIAVEWESNGQPENNYKTTPPMLDSDGSFFLYSKLTVDKSRWQQGNVFSCSVMHEALHNHYTQKSLSLSPGKGGGGSGGGGSQVQLQESGPGLVKPSETLSLTCAVSGYSITSDYAWNWIRQPPGKGLEWMGKISYSGKTDYNPSLKSRSTISRDTSKNQFSLKLSSVTAADTAVYYCARGNFEGAMDYWGQGTLVTVSSGGGGSGGGGSGGGGSDIQMTQSPSSLSASVGDRVTITCKASQSVSNDVAWYQQKPGKAPKLLIYYASNRYPGVPSRFSGSGSGTDFTLTISSLQPEDFATYYCQQDYSSPWTFGGGTKLEIK
light: DIQMTQSPSSLSASVGDRVTITCKSSQSLLASGNQNNYLAWYQQKPGKAPKMLIIWASTRVSGVPSRFSGSGSGTDFTLTISSLQPEDFATYYCQQSYSRPYTFGQGTKVEIKRTVAAPSVFIFPPSDEQLKSGTASVVCLLNNFYPREAKVQWKVDNALQSGNSQESVTEQDSKDSTYSLSSTLTLSKADYEKHKVYACEVTHQGLSSPVTKSFNRGEC
With B1 the Kd [1] was 71.6 nM, the koff [1] was 0.00648 s⁻¹ and the kon [1] was 90500 M⁻¹ s⁻¹. The Kd [2] was 0.07 nM.
